Two molecules from patent US20050014931A1 (ABGENIX, published 2005) can be followed below.

This assay deals with BSA (UniProt P02769 25-607). In words: ELISA screen of hybridoma supernatants. Background: An ELISA detects its analyte on a solid surface through an enzyme-linked reagent.
BSA, sequence (P02769 25-607 limits assumed): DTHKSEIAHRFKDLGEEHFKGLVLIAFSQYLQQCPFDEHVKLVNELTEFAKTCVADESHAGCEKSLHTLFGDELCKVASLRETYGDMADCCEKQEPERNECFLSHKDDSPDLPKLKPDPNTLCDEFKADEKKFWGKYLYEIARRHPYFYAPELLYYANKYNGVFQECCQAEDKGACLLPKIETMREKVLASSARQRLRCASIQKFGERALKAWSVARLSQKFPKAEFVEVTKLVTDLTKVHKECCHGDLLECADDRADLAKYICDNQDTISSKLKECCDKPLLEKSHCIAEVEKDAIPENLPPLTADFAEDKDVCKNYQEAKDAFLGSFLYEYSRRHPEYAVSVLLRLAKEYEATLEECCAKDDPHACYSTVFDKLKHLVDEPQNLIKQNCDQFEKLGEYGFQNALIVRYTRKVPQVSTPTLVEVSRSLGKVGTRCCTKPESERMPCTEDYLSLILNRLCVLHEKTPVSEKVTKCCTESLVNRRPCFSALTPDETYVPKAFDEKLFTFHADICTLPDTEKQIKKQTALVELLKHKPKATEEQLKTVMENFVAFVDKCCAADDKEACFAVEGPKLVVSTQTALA

B1: Mab 1A2 (antibody, V domains shown)
VH: not shown
VL: DIELTQSPDFQSVTPKEKVTITCRASQSIGSSLHWYQQKPDQSPKLLIKYASQSFSGVPSRFSGSGSGTDFTLTINSLEAEDAATYYCHQSSSLPRTFGQGTKVEIKR
Take B1: the binding result is reported as “no binding”.

B2: Mab 1F10/7C5 (antibody, V domains shown)
VH: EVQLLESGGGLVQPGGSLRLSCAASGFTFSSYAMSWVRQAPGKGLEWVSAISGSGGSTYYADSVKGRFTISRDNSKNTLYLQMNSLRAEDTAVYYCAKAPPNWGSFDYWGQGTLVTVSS
VL: DIELTQSPLSLPVTLGQPASISCRSSQSLVYSDGNTYLNWFQQRPGQSPRRLIYKVSNWDSGVPDRFSGSGSGTDFTLKISRVEAEDVGVYYCMQGTHWPRTFGQGTKVEIKR
notes: also called Mab 7C5
For the molecule B2, the binding result is given as “no binding”.
